Tested on: Wnt signaling
Test: Wnt signaling in MMTV-Wnt1 tumors (GST-E-cadherin pull-down, c-Myc expression)
Assay type: in vivo, mice
Settings: GST-E-cadherin pull-down and c-Myc expression
Protocol: The GST-E-cadherin pulldown assay was performed as previously described (2). Cells expressing control or LRP6 shRNA were treated with L cells or Wnt3a-conditioned media (CM) for 4 h. Free β-catenin was determined using a GST-E-cadherin pull-down assay. Cells were lysed for 30 minutes at 4° C. Protein concentrations in lysates were quantified, and equal quantities of total proteins from different samples were incubated with GST-E-cadherin Sepharose beads for 4 h at 4° C. After incubation, the beads were washed three times and the bound proteins were eluted and separated via SDS-PAGE. Western blotting was performed using antibody to β-catenin.
In these experiments, mice bearing established MMTV-Wnt1 tumor transplants were divided into three groups (five animals per group) and were i.p. injected with PBS (vehicle), Mesd, or Mesd peptide every other day. Tumor volume was analyzed using caliper measurement. Data represent at least three independent experiments and each time point represents the mean tumor volume±SEM. *p<0.05; **p<0.01. […] Scale bar=50 μm.

B1: Mesd: Recombinant full-length mouse Mesd expressed in E. coli, N-terminal polyhistidine tail, lacking the signal peptide (protein)
chain: ADTPGEATPPPRKKKDIRDYNDADMARLLEQWEKDDDIEEGDLPEHKRPSAPIDFSKLDPGKPESILKMTKKGKTLMMFVTVSGNPTEKETEEITSLWQGSLFNANYDVQRFIVGSDRAIFMLRDGSYAWEIKDFLVSQDRCAEVTLEGQMYPGKGGGSKEKNKTKPEKAKKKEGDRKPRASKEDNRAGSRREDL
modifications: left off: small tags and cut ends
notes: Recombinant full-length mouse Mesd expressed in E. coli, N-terminal polyhistidine tail, lacking the signal peptide
Which “Wnt signaling in tumors compared to control treatment” value does the source give for B1 here?
The value was “decreased Wnt signaling”.

— patent publication US8198236B2, “Methods and compositions for the treatment of cancer” (Washington University, priority 2007, dated 2012)
